Reference: US7407939
Values belong to the binder of their own block, whether it stands above or below them. Where no end group is shown, it is not given here. Side-chain parts run from the residue outwards. [ ]: non-standard residue; d: D form. The star is where a group is joined. O‑CO‑N‑SO2‑IQ = carbamate-linked N-sulfonyl 5-aminoethylsulfonamide isoquinoline (O-CO-N-SO2-IQ); SO2‑IQ = 5-aminoethylsulfoneamide isoquinoline, O=S(=O)(NCCN*)c1cccc2cnccc12; X1 = 5‑aminoethylsulfonamide isoquinoline, O=S(=O)(NCCN*)c1cccc2cnccc12; S‑IQ = 5-mercaptoaminopropyl isoquinoline; hLeu = CC(C)CC[C@H](N)C(=O)O; GltNH2 = not defined here; Nle = CCCC[C@H](N)C(=O)O; Orn = NCCC[C@H](N)C(=O)O; bGaba = not defined here; Dab = NCC[C@H](N)C(=O)O; Nva = CCC[C@H](N)C(=O)O; Abu = CC[C@H](N)C(=O)O; Dap = NC[C@H](N)C(=O)O; Ph2 = not defined here; GlyNH2 = aminoglycine; Ava = NCCCCC(=O)O; βAla = NCCC(=O)O

Columns and labels:
Experiment in all cases: cell-based or functional assay
protein kinase B, P31749 = molecular target: protein kinase B, P31749
Chain of protein kinase B, P31749 (P31749 whole entry): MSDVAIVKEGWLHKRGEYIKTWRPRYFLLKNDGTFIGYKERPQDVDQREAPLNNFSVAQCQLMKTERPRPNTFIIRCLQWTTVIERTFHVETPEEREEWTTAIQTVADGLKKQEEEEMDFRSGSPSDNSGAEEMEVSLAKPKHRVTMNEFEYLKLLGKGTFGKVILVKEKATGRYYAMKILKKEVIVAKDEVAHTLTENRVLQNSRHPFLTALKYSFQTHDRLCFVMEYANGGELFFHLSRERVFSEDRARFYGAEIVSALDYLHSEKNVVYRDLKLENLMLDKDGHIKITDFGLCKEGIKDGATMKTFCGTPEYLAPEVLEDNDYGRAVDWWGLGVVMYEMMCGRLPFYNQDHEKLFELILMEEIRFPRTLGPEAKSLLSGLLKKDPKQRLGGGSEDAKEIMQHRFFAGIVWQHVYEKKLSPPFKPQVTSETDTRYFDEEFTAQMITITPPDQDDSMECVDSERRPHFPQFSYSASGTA

protein kinase B = protein kinase B (UniProt P31749)
Chain of protein kinase B (P31749 whole entry): as above

[1] = molecular target: protein kinase A, catalytic subunit

Binder: RPR[Nva][GlyNH2]A[hLeu] [60006-5A]
% Inhibition PKB I (protein kinase B, P31749): 47%
% Inhibition PKB II (protein kinase B, P31749): 43%
IC50 µM PKB (protein kinase B, P31749): 10 µM

Binder: RPRTE(SO2‑IQ)SF [PTR 6016]
Activity PKB (protein kinase B, P31749): 0.9 µM
PKB IC50 (protein kinase B, P31749): 1000 nM

Binder: RPRTS[GlyNH2]F [60005-5]
% Inhibition PKB I (protein kinase B, P31749): 96%
% Inhibition PKB II (protein kinase B, P31749): 93%
IC50 µM PKB (protein kinase B, P31749): 2.4 µM

Binder: RPR[Orn]SSF [AR 60003-52]
Activity PKB (protein kinase B, P31749): 2.5 µM

Binder: RPRRSSF [AR 60003-53]
Activity PKB (protein kinase B, P31749): 3 µM

Binder: RPRTE([βAla-SO2‑IQ])SF [PTR 6082]
PKB IC50 (protein kinase B, P31749): 5540 nM

Binder: RPRT[Abu][Dap]F [60002-88]
% Inhibition PKB I (protein kinase B): 40%
% Inhibition PKA [1]: -3%

Binder: RPRTS[Abu]F-{O‑CO‑N‑SO2‑IQ} (not fully specified; printed as Arg-Pro-Arg-Thr-Ser-Abu-Phe-(O-CO-N-SO2-IQ)) [PTR 6013]
Activity PKB (protein kinase B, P31749): 3 µM
PKB IC50 (protein kinase B, P31749): 4000 nM

Binder: RPRT[GlyNH2]A[hLeu] [60005-32]
% Inhibition PKB I (protein kinase B): 43%
% Inhibition PKB II (protein kinase B): 44%
% Inhibition PKA [1]: 4%

Binder: RPR[Nle]E([βAla-SO2‑IQ])SF [PTR 6086]
PKB IC50 (protein kinase B, P31749): 570 nM

Binder: RPR[Nva]TA[hLeu] [60005-84]
% Inhibition PKB I (protein kinase B): 39%
% Inhibition PKB II (protein kinase B): 48%
% Inhibition PKA [1]: 7%

Binder: RPR[Nva]SAF [60002-38]
% Inhibition PKB I (protein kinase B): 43%
IC50 µM PKB (protein kinase B): 18 µM
% Inhibition PKA [1]: -2%
IC50 µM PKA [1]: 80 µM

Binder: RPRTSE(SO2‑IQ)F [PTR 6014]
Activity PKB (protein kinase B, P31749): 25 µM
PKB IC50 (protein kinase B, P31749): 25000 nM

Binder: RPR[Nva][GlyNH2][Abu][hLeu] [60006-7B]
% Inhibition PKB I (protein kinase B, P31749): 53%
% Inhibition PKB II (protein kinase B, P31749): 47%

Binder: RPR[Nle]SS[Nle] [AR 60003-62]
% inhibition at 1 µM (protein kinase B, P31749): 70%
Activity PKB (protein kinase B, P31749): < 1 µM

Binder: RPRMSSF [AR 60003-50]
Activity PKB (protein kinase B, P31749): 2.5 µM

Binder: RPR[Nva][GlyNH2][GltNH2][hLeu] (reading uncertain) [60006-16A]
% Inhibition PKB I (protein kinase B, P31749): 42%
% Inhibition PKB II (protein kinase B, P31749): 42%

Binder: RPR[Nva]GA[hLeu] [60006-18A]
% Inhibition PKB I (protein kinase B): 47%
% Inhibition PKB II (protein kinase B): 52%
IC50 µM PKB (protein kinase B): 9.45 µM
% Inhibition PKA [1]: 11%
IC50 µM PKA [1]: > 100 µM

B1: PTR 6020 (peptide)
peptide: RPRTS[Abu]F
modifications: not fully specified (C-terminus); printed as Arg-Pro-Arg-Thr-Ser-Abu-Phe-(O-CO-N-bAla-SO2-IQ); also: -(O-CO-N-bAla-SO2-IQ) on Phe7, attachment unclear
Activity PKB (protein kinase B, P31749): > 20 µM
PKB IC50 (protein kinase B, P31749): 18000 nM

Binder: RPR[Nva][GlyNH2][Dap][Ph2] (reading uncertain) [60006-11B]
% Inhibition PKB I (protein kinase B, P31749): 51%
% Inhibition PKB II (protein kinase B, P31749): 44%

Binder: RPR[Nva]S[GlyNH2][hLeu] [60005-75]
% Inhibition PKB I (protein kinase B): 70%
% Inhibition PKB II (protein kinase B): 70%
% Inhibition PKA [1]: -4%

The next lines start with the values.

PKB IC50 (protein kinase B, P31749): 5000 nM
Binder: RPR[Nva]E([βAla-SO2‑IQ])A[hLeu] [PTR 6152]

PKB IC50 (protein kinase B, P31749): 114 nM
Binder: RPR[Nle]E(S‑IQ)SF [PTR 6136]

Activity PKB (protein kinase B, P31749): 5 µM
Binder: RPRTS[Dap][hLeu] [TY 60002-96]

% Inhibition PKB I (protein kinase B, P31749): 62%
Activity PKB (protein kinase B, P31749): 5 µM
Binder: RPRTSA[hLeu] [TY 60002-50]

% inhibition of kinase activity at 1 µM; PKB-kinase (spa) Assay 1 (protein kinase B): -12%
% inhibition of kinase activity at 1 µM; PKB-kinase (spa) Assay 2 (protein kinase B): 58%
Binder: RPR[Nle]E([βAla-X1])AF (not fully specified (C-terminus)) [TY-60020-93]

PKB IC50 (protein kinase B, P31749): 2000 nM
Binder: RPR[Nle]E([βAla-SO2‑IQ])[Abu]F [PTR 6138]

% inhibition of kinase activity at 1 µM; PKB-kinase (spa) Assay 1 (protein kinase B): 92%
% inhibition of kinase activity at 1 µM; PKB-kinase (spa) Assay 2 (protein kinase B): 93%
IC50 PKB (protein kinase B): 70 nM
% inhibition of kinase activity at 1 µM; PKA-kinase Assay 1 [1]: 95%
% inhibition of kinase activity at 1 µM; PKA-kinase Assay 2 [1]: 96%
IC50 PKA [1]: 210 nM
Binder: RPR[Nle]E([Gly-X1])[Dab]F (not fully specified (C-terminus)) [TY-60020-57]

PKB IC50 (protein kinase B, P31749): 1180 nM
Binder: RPR[Orn]E([bGaba-SO2‑IQ])SF (reading uncertain) [PTR 6088]

PKB IC50 (protein kinase B, P31749): 217 nM
Binder: RPR[Nva]E(S‑IQ)SF [PTR 6134]

PKB IC50 (protein kinase B, P31749): 10000 nM
Binder: RPRT[Dap]SF (not fully specified (residue 5)) [PTR 6106]

% inhibition of kinase activity at 1 µM; PKB-kinase (spa) Assay 1 (protein kinase B): 62%
% inhibition of kinase activity at 1 µM; PKB-kinase (spa) Assay 2 (protein kinase B): 75%
IC50 PKB (protein kinase B): 300 nM
% inhibition of kinase activity at 1 µM; PKA-kinase Assay 1 [1]: 92%
% inhibition of kinase activity at 1 µM; PKA-kinase Assay 2 [1]: 93%
IC50 PKA [1]: 200 nM
Binder: RPR[Nle]E([Gly-X1])[Orn]F (not fully specified (C-terminus)) [TY-60020-59]

% inhibition of kinase activity at 1 µM; PKB-kinase (spa) Assay 1 (protein kinase B): 46%
% inhibition of kinase activity at 1 µM; PKB-kinase (spa) Assay 2 (protein kinase B): 90%
IC50 PKB (protein kinase B): 3300 nM
IC50 PKA [1]: 2000 nM
Binder: RPR[Nle]E([βAla-X1])[Nva]F (not fully specified (C-terminus)) [TY-60020-95]

% inhibition of kinase activity at 1 µM; PKB-kinase (spa) Assay 1 (protein kinase B): 9%
% inhibition of kinase activity at 1 µM; PKB-kinase (spa) Assay 2 (protein kinase B): 31%
Binder: RPR[Nle]E([βAla-X1])A[hLeu] (not fully specified (C-terminus)) [TY-60020-94]

PKB IC50 (protein kinase B, P31749): 9000 nM
Binder: RPR[Nle]E(SO2‑IQ)SF [PTR 6128]

% inhibition of kinase activity at 1 µM; PKB-kinase (spa) Assay 1 (protein kinase B): 80%
% inhibition of kinase activity at 1 µM; PKB-kinase (spa) Assay 2 (protein kinase B): 86%
IC50 PKB (protein kinase B): 110 nM
% inhibition of kinase activity at 1 µM; PKA-kinase Assay 1 [1]: 99%
% inhibition of kinase activity at 1 µM; PKA-kinase Assay 2 [1]: 99%
IC50 PKA [1]: 50 nM
Binder: RPR[Orn]E([Gly-X1])[Dab][hLeu] (not fully specified (C-terminus)) [TY-60020-42]

% inhibition of kinase activity at 1 µM; PKB-kinase (spa) Assay 1 (protein kinase B): 0%
% inhibition of kinase activity at 1 µM; PKB-kinase (spa) Assay 2 (protein kinase B): 54%
Binder: RPR[Nle]E([βAla-X1])[Nva][hLeu] (not fully specified (C-terminus)) [TY-60020-96]

% Inhibition PKB I (protein kinase B, P31749): 44%
Activity PKB (protein kinase B, P31749): 5 µM
IC50 µM PKB (protein kinase B, P31749): 34 µM
Binder: RPRTS[Abu][hLeu] [TY 60002-73]

PKB IC50 (protein kinase B, P31749): 25000 nM
Binder: RPR[Nva]E(SO2‑IQ)A[hLeu] [PTR 6150]

IC50 PKB (protein kinase B, P31749): 20 nM
PKB IC50 (protein kinase B, P31749): 20 nM
Binder: RPR[Orn]E(SO2‑IQ)SF [PTR 6132]

IC50 PKB (protein kinase B, P31749): 300 nM
PKB IC50 (protein kinase B, P31749): 300 nM
Binder: RPRTE([βAla-S‑IQ])SF [PTR 6102]

IC50 PKB (protein kinase B, P31749): 100 nM
PKB IC50 (protein kinase B, P31749): 100 nM
Binder: RPRTE(S‑IQ)SF [PTR 6104]

PKB IC50 (protein kinase B, P31749): 930 nM
Binder: RPR[Nle]E([βAla-SO2‑IQ])S[Nle] [PTR 6096]

% inhibition of kinase activity at 1 µM; PKB-kinase (spa) Assay 1 (protein kinase B): 89%
% inhibition of kinase activity at 1 µM; PKB-kinase (spa) Assay 2 (protein kinase B): 93%
IC50 PKB (protein kinase B): 120 nM
% inhibition of kinase activity at 1 µM; PKA-kinase Assay 1 [1]: 98%
% inhibition of kinase activity at 1 µM; PKA-kinase Assay 2 [1]: 99%
IC50 PKA [1]: 50 nM
Binder: RPR[Nle]E([Gly-X1])[Dab][hLeu] (not fully specified (C-terminus)) [TY-60020-58]

PKB IC50 (protein kinase B, P31749): 9500 nM
Binder: RPRTD(SO2‑IQ)SF [PTR 6130]

Activity PKB (protein kinase B, P31749): 5 µM
Binder: RPRVS[Abu]F [TY 60002-61]

PKB IC50 (protein kinase B, P31749): 413 nM
Binder: RPR[Nle]E([βAla-SO2‑IQ])[Dab]F [PTR 6140]

PKB IC50 (protein kinase B, P31749): 5600 nM
Binder: RPRTE([Ava-SO2‑IQ])SF [PTR 6090]
